# Measurements as given in patent US20140357543A1.
# Where a chain is given by its changes, count along the chain named.
# T1: alcalase (trade name "Alcalase 2.5L", Novozymes) (UniProt P00780)
# T1 sequence (looked up): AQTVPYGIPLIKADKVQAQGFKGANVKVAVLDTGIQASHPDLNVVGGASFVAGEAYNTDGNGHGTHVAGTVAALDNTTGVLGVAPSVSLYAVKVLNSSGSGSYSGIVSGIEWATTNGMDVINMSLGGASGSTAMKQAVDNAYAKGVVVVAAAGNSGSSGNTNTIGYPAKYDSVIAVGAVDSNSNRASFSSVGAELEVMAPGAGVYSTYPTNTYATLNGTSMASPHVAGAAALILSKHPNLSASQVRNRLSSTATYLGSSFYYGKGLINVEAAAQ
# B1: proteinaceous protease inhibitor of SEQ ID NO:40 (protein)
# chain: TECGGGGGAKTSWPEVVGLSVEEAKKVILKDKPDADIVVLPVGSVVTADYRPNRVRIFVDIVAQTPHVG
# B2: proteinaceous protease inhibitor of SEQ ID NO:41 (protein)
# chain: MSSVEKKPEGVNTGAGDRHNLKTEWPELVGKSVEEAKKVILQDKSEAQIIVLPVGTIVTMEYRIDRVRLFVDKLDNIAQVPRVG
# B3: proteinaceous protease inhibitor (BC) of SEQ ID NO:1, wheat-derived subtilisin/chymotrypsin inhibitor (protein)
# chain: TDTGDHHNQKTEWPELVGKSVEEAKKVILQDKSEAQIVVLPVGTIVTMEYRIDRVRLFVDSLDKIAQVPRVG
# B4: proteinaceous protease inhibitor of SEQ ID NO:6 (protein)
# chain: B3 chain with V38I
# B5: proteinaceous protease inhibitor of SEQ ID NO:5 (protein)
# chain: B3 chain with V38L
# Biological target: T1, alcalase (trade name "Alcalase 2.5L", Novozymes)
# Assay: cell-based or functional assay
Protease activity upon dilution (%) immediately after preparation,Remaining activity (%) immediately after preparation,Binder
100%,53%,B1
8%,0%,B2
10%,0%,B3
10%,0%,B4
100%,11%,B5
